Laboratory results taken from IntAct's records for PubMed 31663853.

B1: Protein phosphatase 1H (Homo sapiens), Q9ULR3 (parent)
chain: MLTRVKSAVANFMGGIMAGSSGSEHGGGSCGGSDLPLRFPYGRPEFLGLSQDEVECSADHIARPILILKETRRLPWATGYAEVINAGKSTHNEDQASCEVLTVKKKAGAVTSTPNRNSSKRRSSLPNGEGLQLKENSESEGVSCHYWSLFDGHAGSGAAVVASRLLQHHITEQLQDIVDILKNSAVLPPTCLGEEPENTPANSRTLTRAASLRGGVGAPGSPSTPPTRFFTEKKIPHECLVIGALESAFKEMDLQIERERSSYNISGGCTALIVICLLGKLYVANAGDSRAIIIRNGEIIPMSSEFTPETERQRLQYLAFMQPHLLGNEFTHLEFPRRVQRKELGKKMLYRDFNMTGWAYKTIEDEDLKFPLIYGEGKKARVMATIGVTRGLGDHDLKVHDSNIYIKPFLSSAPEVRIYDLSKYDHGSDDVLILATDGLWDVLSNEEVAEAITQFLPNCDPDDPHRYTLAAQDLVMRARGVLKDRGWRISNDRLGSGDDISVYVIPLIHGNKLS

Variants of: B1
Conditions: with rab10_human RAB10, P61026
Chain of rab10_human RAB10, P61026 (P61026 whole entry): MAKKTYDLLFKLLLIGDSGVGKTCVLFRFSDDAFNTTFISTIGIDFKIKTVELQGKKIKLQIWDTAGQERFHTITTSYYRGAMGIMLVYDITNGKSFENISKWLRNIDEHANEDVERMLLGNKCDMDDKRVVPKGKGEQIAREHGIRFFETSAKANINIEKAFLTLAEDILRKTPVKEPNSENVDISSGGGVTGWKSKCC

effect of a mutation on the interaction | Variant
causing an interaction | MLTRVKSAVANFMGGIMAGSSGSEHGGGSCGGSDLPLRFPYGRPEFLGLSQDEVECSADHIARPILILKETRRLPWATGYAEVINAGKSTHNEDQASCEVLTVKKKAGAVTSTPNRNSSKRRSSLPNGEGLQLKENSESEGVSCHYWSLFDGHAGSGAAVVASRLLQHHITEQLQDIVDILKNSAVLPPTCLGEEPENTPANSRTLTRAASLRGGVGAPGSPSTPPTRFFTEKKIPHECLVIGALESAFKEMDLQIERERSSYNISGGCTALIVICLLGKLYVANAGASRAIIIRNGEIIPMSSEFTPETERQRLQYLAFMQPHLLGNEFTHLEFPRRVQRKELGKKMLYRDFNMTGWAYKTIEDEDLKFPLIYGEGKKARVMATIGVTRGLGDHDLKVHDSNIYIKPFLSSAPEVRIYDLSKYDHGSDDVLILATDGLWDVLSNEEVAEAITQFLPNCDPDDPHRYTLAAQDLVMRARGVLKDRGWRISNDRLGSGDDISVYVIPLIHGNKLS [D288A]
causing an interaction | MLTRVKSAVANFMGGIMAGSSGSEHGGGSCGGSDLPLRFPYGRPEFLGLSQDEVECSADHIARPILILKETRRLPWATGYAEVINAGKSTHNEDQASCEVLTVKKKAGAVTSTPNRNSSKRRSSLPNGEGLQLKENSESEGVSCHYWSLFDGHAGSGAAVVASRLLQHHITEQLQDIVDILKNSAVLPPTCLGEEPENTPANSRTLTRAASLRGGVGAPGSPSTPPTRFFTEKKIPHECLVIGALESAFKEMDLQIERERSSYNISGGCTALIVICLLGKLYVANAGESRAIIIRNGEIIPMSSEFTPETERQRLQYLAFMQPHLLGNEFTHLEFPRRVQRKELGKKMLYRDFNMTGWAYKTIEDEDLKFPLIYGEGKKARVMATIGVTRGLGDHDLKVHDSNIYIKPFLSSAPEVRIYDLSKYDHGSDDVLILATDGLWDVLSNEEVAEAITQFLPNCDPDDPHRYTLAAQDLVMRARGVLKDRGWRISNDRLGSGDDISVYVIPLIHGNKLS [D288E]
